The results in this text go back to US20090208538A1 (ROCKEFELLER UNIVERSITY, published 2009).

Assay [1] addresses T1, HLA-A*0201 (human).
T1 construct: also called HLA-A2.1; HLA A2.1
Put plainly: iTopia binding.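 Further: each peptide tested for binding to HLA-A2 molecules immobilized on plates, using a commercial screening kit run per its supplied protocol and reagents.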

Assay [2] deals with T1, HLA-A*0201. Nature of the assay: iTopia affinity.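 Further: peptide affinity for plate-bound HLA-A2 molecules (iTopia system), with ED50 derived from an eight-point serial peptide dilution series run under binding assay conditions.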
Assay [3] has as its target T1, HLA-A*0201. Nature of the assay: iTopia off-rate.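 Further: Half-life of peptide complexes with plate-bound HLA-A2, peptides loaded 18 h at 21 C, washed, then held at 37 C over several time points.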
For assay [4], the target named is T1, HLA-A*0201. Nature of the assay: iTopia net score.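 Further: combined score from peptide binding, ED₅₀ and half-life of peptide complexes with plate-bound HLA-A2 molecules, computed by a proprietary formula in iTopia software.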

Regarding SLTETIECL [cdr2 114-122 SLTETIECL], the “binding vs positive control” value in the assay with HLA-A*0201 [1] is above 30%. The same molecule showed an ED50 with HLA-A*0201 [2] of 4 µM. In the assay with HLA-A*0201 [3], the t1/2 came to 9.3. In the assay with HLA-A*0201 [4], this molecule gave an iScore of 0.518.
